Test results as given in PMC6689074, “In vivo Hox binding specificity revealed by systematic changes to a single cis regulatory module”.
Residue numbers refer to the chain shown, from its start.

B1: main class 1 + overlapping high-affinity class 3 oligo (dsDNA)
DNA 1: ACGGGATTTGATTGATTTATTAGAATTCGGCGACGAACGAAAGC
DNA 2: GCTTTCGTTCGTCGCCGAATTCTAATAAATCAATCAAATCCCGT
B2: mutant main + high-affinity overlapping class 3 oligo (dsDNA)
DNA 1: B1 DNA 1 with T8A, T9C
DNA 2: B1 DNA 2 with A36G, A37T

How the values were obtained:
[1] = target: T1, Ultrabithorax isoform IVa (UbxIVa);Extradenticle (Exd);Homothorax HM domain (HthHM) (Drosophila melanogaster?;Drosophila …, UniProt P83949-5;P40427;O46339 1-346;1-376;1-211, ||); assay: EMSA; increased with high-affinity overlapping site; EMSA: 6 nM 32P dsDNA probe, 200 nM Exd-HM, 30-180 nM Hox; 4% polyacrylamide gel, 120 V, 2.5 h, 4 C; buffer, salt and pH not given in material; details: protein: recombinant;recombinant;recombinant; tags: His (pET21b);none (pET9a);His (pET21b); copies: 1;1;1; label: 32P
T1 sequence (P83949 other isoform, or with tags, fused parts or gaps ||, chain 1 of 3): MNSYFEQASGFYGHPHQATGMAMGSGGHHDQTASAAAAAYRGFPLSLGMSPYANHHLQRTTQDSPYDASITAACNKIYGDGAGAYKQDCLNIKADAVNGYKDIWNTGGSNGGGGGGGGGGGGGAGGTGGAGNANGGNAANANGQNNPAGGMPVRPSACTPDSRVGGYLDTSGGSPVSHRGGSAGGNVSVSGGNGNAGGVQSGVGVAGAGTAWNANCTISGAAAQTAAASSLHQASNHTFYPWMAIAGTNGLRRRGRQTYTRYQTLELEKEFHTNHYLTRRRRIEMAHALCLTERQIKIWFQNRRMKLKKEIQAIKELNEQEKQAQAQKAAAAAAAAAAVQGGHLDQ
T1 sequence (P40427 whole entry, chain 2 of 3, the tested form may be a part, canonical isoform): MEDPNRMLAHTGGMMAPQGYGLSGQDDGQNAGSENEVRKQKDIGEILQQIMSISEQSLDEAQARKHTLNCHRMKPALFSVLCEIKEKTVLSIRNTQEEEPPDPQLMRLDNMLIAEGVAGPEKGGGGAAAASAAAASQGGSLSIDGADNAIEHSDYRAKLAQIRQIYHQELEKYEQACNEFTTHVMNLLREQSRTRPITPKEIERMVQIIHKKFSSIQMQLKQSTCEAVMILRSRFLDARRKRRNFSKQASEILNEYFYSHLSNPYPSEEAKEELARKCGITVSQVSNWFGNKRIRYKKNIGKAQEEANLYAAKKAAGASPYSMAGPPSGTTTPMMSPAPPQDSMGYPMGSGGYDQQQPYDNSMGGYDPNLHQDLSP
T1 sequence (O46339 1-211, chain 3 of 3): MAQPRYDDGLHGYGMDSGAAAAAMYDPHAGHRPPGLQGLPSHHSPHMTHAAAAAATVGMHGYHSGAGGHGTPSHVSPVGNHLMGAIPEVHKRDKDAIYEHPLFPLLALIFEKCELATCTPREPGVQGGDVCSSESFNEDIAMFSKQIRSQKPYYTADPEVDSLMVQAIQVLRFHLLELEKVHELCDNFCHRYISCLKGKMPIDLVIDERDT

[2] = target: T1, Ultrabithorax isoform IVa …; assay: EMSA; strong binding; EMSA: 6 nM 32P dsDNA probe, 200 nM Exd-HM, 30-180 nM Hox; 4% polyacrylamide gel, 120 V, 2.5 h, 4 C; buffer, salt and pH not given in material; details: protein: recombinant;recombinant;recombinant; tags: His (pET21b);none (pET9a);His (pET21b); copies: 1;1;1; label: 32P

Row | Binder | binding result [1] | binding result [2]
1 | B1 | binds | 
2 | B2 |  | binds
